± gives the uncertainty stated by the source.
B1: Bromodomain adjacent to zinc finger domain protein 2B, residues 1927 to 1982; numbered along this chain, Q9UIF8 (parent)
chain: KSIMKVYCQICRKGDNEELLLLCDGCDKGCHTYCHRPKITTIPDGDWFCPACIAKA

Variants of: B1
Test: abundance fitness (aPCA) (normalised: wild type 0, dead -1); higher = more abundant; growth selection in yeast, the domain comes from the species named
Details: Homo sapiens

Abundance fitness of substitutions, site by site:
K38: W -0.216 ± 0.098 | I -0.071 ± 0.12 | V -0.104 ± 0.088 | N -0.139 ± 0.12 | F -0.147 ± 0.16 | Y -0.148 ± 0.12 | Q -0.219 ± 0.13 | H -0.153 ± 0.1 | P -0.122 ± 0.092 | T -0.016 ± 0.092 | R -0.122 ± 0.074 | C -0.128 ± 0.1 | L 0.015 ± 0.077 | S -0.059 ± 0.072 | E -0.186 ± 0.11 | M -0.09 ± 0.11
C34: V -0.771 ± 0.071 | P -0.675 ± 0.11 | F -0.766 ± 0.12 | W -0.895 ± 0.11 | I -0.961 ± 0.19 | A -0.688 ± 0.088 | Y -0.659 ± 0.15 | Q -0.731 ± 0.12 | G -0.495 ± 0.07 | H -0.216 ± 0.16 | K -0.561 ± 0.11 | S -0.584 ± 0.08 | T -0.694 ± 0.1 | D -0.63 ± 0.14 | L -0.763 ± 0.079 | N -0.818 ± 0.19 | M -0.672 ± 0.095
D46: M -0.218 ± 0.13 | E 0.028 ± 0.11 | P 0.058 ± 0.12 | T -0.094 ± 0.096 | F -0.334 ± 0.15 | H -0.122 ± 0.12 | I -0.305 ± 0.16 | Q 0.117 ± 0.14 | N -0.009 ± 0.12 | L -0.233 ± 0.099 | K 0.033 ± 0.13 | A -0.146 ± 0.089 | Y -0.375 ± 0.17 | V -0.046 ± 0.088 | W -0.582 ± 0.16 | G -0.031 ± 0.083 | S -0.006 ± 0.096 | C -0.06 ± 0.14
G45: V -0.139 ± 0.23 | R 0.023 ± 0.17 | W -0.728 ± 0.32 | M -0.371 ± 0.47 | K -0.425 ± 0.41 | S -0.005 ± 0.13 | D -0.068 ± 0.13 | C -0.235 ± 0.4 | A -0.154 ± 0.2
I42: H -0.235 ± 0.13 | V -0.039 ± 0.099 | D -0.209 ± 0.24 | M 0.049 ± 0.15 | Q -0.201 ± 0.11 | G -0.048 ± 0.077 | L -0.015 ± 0.08 | T 0.011 ± 0.1 | E 0.069 ± 0.14 | A 0.042 ± 0.1 | P -0.043 ± 0.11 | Y -0.093 ± 0.18 | R -0.054 ± 0.073 | S -0.065 ± 0.085 | F -0.007 ± 0.2 | K 0.009 ± 0.1
F48: L -0.064 ± 0.097 | G -0.06 ± 0.069 | V 0.044 ± 0.089 | M -0.01 ± 0.14 | C 0.037 ± 0.12 | Y 0.039 ± 0.16 | H -0.029 ± 0.15 | T 0.008 ± 0.12 | N 0.192 ± 0.15 | A 0.021 ± 0.089 | K 0.085 ± 0.14 | W -0.07 ± 0.098 | Q -0.04 ± 0.12 | P -0.132 ± 0.12 | R 0 ± 0.069 | S 0.037 ± 0.08 | I 0.07 ± 0.2 | E -0.028 ± 0.1
H35: D 0.001 ± 0.14 | P -0.093 ± 0.11 | W -0.18 ± 0.091 | M 0.002 ± 0.11 | R -0.137 ± 0.073 | G -0.102 ± 0.075 | L 0.027 ± 0.065 | E -0.169 ± 0.093 | I -0.019 ± 0.19 | F -0.109 ± 0.11 | V -0.052 ± 0.083 | N -0.09 ± 0.15 | Q -0.09 ± 0.097 | K 0.024 ± 0.12 | Y -0.201 ± 0.1 | S -0.105 ± 0.077 | C -0.084 ± 0.14 | A 0.021 ± 0.075
P37: D -0.195 ± 0.16 | R -0.227 ± 0.071 | M -0.227 ± 0.094 | Q -0.239 ± 0.1 | Y -0.602 ± 0.15 | V -0.228 ± 0.1 | T -0.148 ± 0.099 | F -0.333 ± 0.12 | G -0.161 ± 0.098 | L -0.177 ± 0.069 | A -0.056 ± 0.1 | S -0.202 ± 0.081 | W -0.31 ± 0.1 | H -0.188 ± 0.11 | E 0.026 ± 0.14 | C -0.32 ± 0.11 | N -0.166 ± 0.13
W47: G -0.289 ± 0.072 | E -0.338 ± 0.092 | N -0.186 ± 0.17 | R -0.115 ± 0.073 | D -0.15 ± 0.11 | A -0.168 ± 0.087 | L -0.312 ± 0.083 | C -0.287 ± 0.12 | Y -0.165 ± 0.19 | I -0.092 ± 0.19 | H -0.169 ± 0.22 | K -0.127 ± 0.11 | P -0.165 ± 0.11 | T -0.213 ± 0.1 | V -0.338 ± 0.091 | F -0.345 ± 0.17 | Q -0.203 ± 0.12
Y33: V -0.178 ± 0.071 | T 0.089 ± 0.1 | R -0.053 ± 0.069 | P -0.323 ± 0.09 | S -0.086 ± 0.077 | W -0.178 ± 0.094
P43: H -0.217 ± 0.14 | F -0.451 ± 0.17 | A -0.006 ± 0.083 | E -0.041 ± 0.11 | C -0.095 ± 0.14 | N -0.245 ± 0.23 | Q 0.024 ± 0.12 | W -0.188 ± 0.14 | D -0.071 ± 0.2 | V -0.127 ± 0.084 | L -0.163 ± 0.1 | T -0.003 ± 0.13 | I 0.092 ± 0.27 | G -0.016 ± 0.079 | S 0.053 ± 0.1 | R -0.083 ± 0.081 | K -0.08 ± 0.15 | M -0.269 ± 0.17 | Y -0.263 ± 0.19
C49: M -0.859 ± 0.17 | Q -0.959 ± 0.16 | G -0.788 ± 0.066 | I -0.859 ± 0.22 | W -0.932 ± 0.1 | H -0.333 ± 0.21 | L -1.04 ± 0.13 | R -0.822 ± 0.073 | P -0.993 ± 0.16 | D -0.244 ± 0.16 | A -0.82 ± 0.16 | S -0.838 ± 0.092 | F -1.04 ± 0.28 | V -1.03 ± 0.13 | K -0.83 ± 0.14 | Y -1.11 ± 0.14 | N -0.816 ± 0.24
C52: A -0.661 ± 0.11 | R -0.581 ± 0.069 | Q -0.531 ± 0.15 | T -0.539 ± 0.13 | P -0.833 ± 0.16 | F -0.736 ± 0.21 | G -0.544 ± 0.067 | L -0.891 ± 0.12 | H -0.392 ± 0.17 | Y -0.666 ± 0.13 | D -0.43 ± 0.18 | N -0.523 ± 0.19 | W -0.971 ± 0.12 | E -0.581 ± 0.1 | M -0.487 ± 0.26 | V -0.905 ± 0.13 | K -0.486 ± 0.15 | S -0.652 ± 0.091
P50: R 0.183 ± 0.35 | G -0.235 ± 0.34 | L -0.71 ± 0.4 | A -0.074 ± 0.48
D44: R -0.086 ± 0.082 | W -0.205 ± 0.12 | L -0.085 ± 0.087 | S -0.031 ± 0.086 | A -0.11 ± 0.1 | Y -0.222 ± 0.2 | E -0.206 ± 0.1 | V -0.105 ± 0.1 | G -0.017 ± 0.077 | I -0.018 ± 0.28 | P 0.048 ± 0.11 | H -0.022 ± 0.17 | T -0.078 ± 0.12 | N 0.111 ± 0.19 | Q -0.282 ± 0.24 | M -0.083 ± 0.12 | K -0.235 ± 0.13
A51: T 0.016 ± 0.12 | L -0.045 ± 0.086 | F -0.385 ± 0.22 | R -0.087 ± 0.069 | D 0.026 ± 0.12 | C -0.124 ± 0.12 | S -0.024 ± 0.082 | H -0.214 ± 0.16 | V -0.095 ± 0.094 | W -0.175 ± 0.1 | Y -0.346 ± 0.21 | G 0.033 ± 0.069 | K -0.162 ± 0.13 | I -0.14 ± 0.2 | M 0.022 ± 0.11 | Q -0.169 ± 0.15 | E 0.028 ± 0.11 | N -0.064 ± 0.17
A54: C -0.095 ± 0.15 | E 0.113 ± 0.1 | D -0.062 ± 0.12 | F -0.093 ± 0.14
T40: D -0.095 ± 0.21 | M -0.024 ± 0.14 | N -0.232 ± 0.14 | A -0.164 ± 0.1 | W -0.082 ± 0.11 | I -0.123 ± 0.13 | L -0.049 ± 0.083 | G -0.106 ± 0.079 | H -0.128 ± 0.14 | F -0.015 ± 0.12 | Y -0.11 ± 0.16 | S -0.131 ± 0.079 | E -0.026 ± 0.12 | K 0.072 ± 0.15 | P 0.031 ± 0.13 | V -0.056 ± 0.098 | R -0.043 ± 0.069
I39: K -0.111 ± 0.1 | N 0.002 ± 0.18 | P -0.266 ± 0.12 | M 0.039 ± 0.1 | F -0.164 ± 0.15 | S -0.087 ± 0.081 | C 0.011 ± 0.12 | E 0.04 ± 0.099 | A -0.068 ± 0.084 | W -0.137 ± 0.095 | H -0.189 ± 0.18 | G -0.1 ± 0.063 | V -0.031 ± 0.08 | T -0.124 ± 0.12 | D -0.194 ± 0.13 | Q -0.059 ± 0.095
I53: H -0.083 ± 0.15 | S -0.033 ± 0.092 | V -0.004 ± 0.07 | P 0.118 ± 0.15 | D -0.006 ± 0.12 | F -0.072 ± 0.24 | G -0.03 ± 0.065 | K -0.089 ± 0.14 | Y -0.026 ± 0.16 | N -0.242 ± 0.15 | W -0.179 ± 0.1 | R -0.087 ± 0.078 | A -0.037 ± 0.074 | E 0.016 ± 0.084 | T -0.225 ± 0.1 | M 0.021 ± 0.11 | L 0.043 ± 0.088 | C -0.051 ± 0.12
R36: I -0.175 ± 0.14 | Y -0.252 ± 0.12 | H 0.021 ± 0.14 | F -0.154 ± 0.12 | K -0.168 ± 0.13 | W -0.004 ± 0.12 | A -0.007 ± 0.074 | G -0.015 ± 0.068 | V 0.053 ± 0.07 | Q -0.1 ± 0.12 | E 0.058 ± 0.1 | C 0.008 ± 0.12 | D -0.03 ± 0.11 | P -0.078 ± 0.1 | T 0.078 ± 0.11 | S 0.065 ± 0.074 | L 0.06 ± 0.081
T41: P 0.074 ± 0.16 | S -0.091 ± 0.094 | H -0.041 ± 0.16 | C -0.09 ± 0.14 | D -0.085 ± 0.11 | Q -0.018 ± 0.17 | R -0.048 ± 0.072 | K 0.085 ± 0.24 | G 0.001 ± 0.061 | W -0.167 ± 0.11 | E 0.023 ± 0.11 | M -0.108 ± 0.12 | A -0.112 ± 0.078 | N -0.059 ± 0.16 | V -0.057 ± 0.074 | Y -0.217 ± 0.16 | L -0.187 ± 0.1
